Consider one substance from patent US20120027757A1.

In test [1] the target is IR (insulin receptor) expressed on Sf9 insect cells infected with baculovirus (UniProt P06213). The test can be described thus: flow cytometry on Sf9 insect cells expressing IR. (Flow cytometry measures light scatter and fluorescence of single cells or particles in a stream.)
Test [2] deals with IGF-IR expressed on Sf9 insect cells infected with baculovirus (UniProt P08069). The test can be described thus: flow cytometry on Sf9 insect cells expressing IGF-IR.

Anti-IGF-IR (αIR3) (antibody): the MFI (Mean fluorescence intensity) is 32 in test [1] and 35 in test [2].
